This test addresses soluble human FcRn (human) (UniProt P55899). The experiment in a line: SPR; pH 6.0.
Chain of UniProt P55899 (P55899 24-297, chain 1 of 2): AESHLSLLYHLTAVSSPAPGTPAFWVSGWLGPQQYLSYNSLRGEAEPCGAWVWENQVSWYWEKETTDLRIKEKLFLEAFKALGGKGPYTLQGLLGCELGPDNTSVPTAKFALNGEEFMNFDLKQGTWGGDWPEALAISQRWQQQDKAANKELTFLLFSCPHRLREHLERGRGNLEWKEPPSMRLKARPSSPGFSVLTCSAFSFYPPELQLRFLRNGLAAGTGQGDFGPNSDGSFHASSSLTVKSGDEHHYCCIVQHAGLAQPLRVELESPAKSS
Chain of UniProt P55899 (P61769 21-119, chain 2 of 2, further chain): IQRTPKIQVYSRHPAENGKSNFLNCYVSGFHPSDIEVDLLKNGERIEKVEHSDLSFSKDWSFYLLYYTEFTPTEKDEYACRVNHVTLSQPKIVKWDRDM
hAK23-IgG4-DHS yielded a Kd of 64 nM. The result for hAK23-IgG1-WT reads 334 nM; that for hAK23-IgG1-DHS, 137 nM. The result for hAK23-IgG4-WT reads 215 nM.

What is called Kd is the concentration at which binding is half-saturated. Higher therefore signals weaker binding.

Values taken from article PMC11499148.
